Experiment [1] concerns the target T1, P8 polypeptide with site 3 (L) mutated to alanine (human).
T1 construct: also called P8 L3A
T1 peptide: RLAEMEFEERKRAAE
Nature of the experiment: ELISA, peptide coated at 1 µg/ml. Background: ELISA stands for enzyme-linked immunosorbent assay.

Experiment [2] addresses T2, P8 polypeptide with site 7 (F) mutated to alanine (human).
T2 construct: also called P8 F7A
T2 peptide: RLLEMEAEERKRAAE
Kind of experiment: ELISA, peptide coated at 1 µg/ml.

Experiment [3] concerns the target T3, P8 polypeptide with site 10 (R) mutated to alanine (human).
T3 construct: also called P8 R10A
T3 peptide: RLLEMEFEEAKRAAE
Nature of the experiment: ELISA, peptide coated at 1 µg/ml.

For experiment [4], the target named is T4, P8 polypeptide with site 1 (R) mutated to alanine (human).
T4 construct: also called P8 R1A
T4 peptide: ALLEMEFEERKRAAE
Nature of the experiment: ELISA, peptide coated at 1 µg/ml, antibody at 1 µg/ml.

The target in experiment [5] is T5, P8 polypeptide with site 2 (L) mutated to alanine (human).
T5 construct: also called P8 L2A
T5 peptide: RALEMEFEERKRAAE
Described as above.

Experiment [6] has as its target T6, P8 polypeptide with site 4 (E) mutated to alanine (human).
T6 construct: also called P8 E4A
T6 peptide: RLLAMEFEERKRAAE
The experiment is described as above.

The target of experiment [7] is T7, P8 polypeptide with site 5 (M) mutated to alanine (human).
T7 construct: also called P8 M5A
T7 peptide: RLLEAEFEERKRAAE
The experiment is described as above.

For experiment [8], the target named is T8, P8 polypeptide with site 6 (E) mutated to alanine (human).
T8 construct: also called P8 E6A
T8 peptide: RLLEMAFEERKRAAE
The experiment is described as above.

The target in experiment [9] is T9, P8 polypeptide with site 8 (E) mutated to alanine (human).
T9 construct: also called P8 E8A
T9 peptide: RLLEMEFAERKRAAE
The description is as above.

Experiment [10] concerns the target T10, P8 polypeptide with site 9 (E) mutated to alanine (human).
T10 construct: also called P8 E9A
T10 peptide: RLLEMEFEARKRAAE
The description is as above.

The target in experiment [11] is T11, P8 polypeptide with site 11 (K) mutated to alanine (human).
T11 construct: also called P8 K11A
T11 peptide: RLLEMEFEERARAAE
The description is as above.

Experiment [12] deals with T12, P8 polypeptide with site 12 (R) mutated to alanine (human).
T12 construct: also called P8 R12A
T12 peptide: RLLEMEFEERKAAAE
The experiment is described as above.

Experiment [13] concerns the target T13, P8 polypeptide with site 15 (E) mutated to alanine (human).
T13 construct: also called P8 E15A
T13 peptide: RLLEMEFEERKRAAA
The description is as above.

The target in experiment [14] is T14, ITPRIPL1 P8 polypeptide (human).
T14 construct: also called human ITPRIPL1 P8 polypeptide; polypeptide segment P8
T14 peptide: RLLEMEFEERKRAAE
Nature of the experiment: ELISA, peptides coated at 1 µg/ml, antibody at 1 µg/ml.

The target of experiment [15] is T15, NRP2 extracellular domain protein with hFc (Sino Biological) (UniProt O60462 21-864).
T15 chain: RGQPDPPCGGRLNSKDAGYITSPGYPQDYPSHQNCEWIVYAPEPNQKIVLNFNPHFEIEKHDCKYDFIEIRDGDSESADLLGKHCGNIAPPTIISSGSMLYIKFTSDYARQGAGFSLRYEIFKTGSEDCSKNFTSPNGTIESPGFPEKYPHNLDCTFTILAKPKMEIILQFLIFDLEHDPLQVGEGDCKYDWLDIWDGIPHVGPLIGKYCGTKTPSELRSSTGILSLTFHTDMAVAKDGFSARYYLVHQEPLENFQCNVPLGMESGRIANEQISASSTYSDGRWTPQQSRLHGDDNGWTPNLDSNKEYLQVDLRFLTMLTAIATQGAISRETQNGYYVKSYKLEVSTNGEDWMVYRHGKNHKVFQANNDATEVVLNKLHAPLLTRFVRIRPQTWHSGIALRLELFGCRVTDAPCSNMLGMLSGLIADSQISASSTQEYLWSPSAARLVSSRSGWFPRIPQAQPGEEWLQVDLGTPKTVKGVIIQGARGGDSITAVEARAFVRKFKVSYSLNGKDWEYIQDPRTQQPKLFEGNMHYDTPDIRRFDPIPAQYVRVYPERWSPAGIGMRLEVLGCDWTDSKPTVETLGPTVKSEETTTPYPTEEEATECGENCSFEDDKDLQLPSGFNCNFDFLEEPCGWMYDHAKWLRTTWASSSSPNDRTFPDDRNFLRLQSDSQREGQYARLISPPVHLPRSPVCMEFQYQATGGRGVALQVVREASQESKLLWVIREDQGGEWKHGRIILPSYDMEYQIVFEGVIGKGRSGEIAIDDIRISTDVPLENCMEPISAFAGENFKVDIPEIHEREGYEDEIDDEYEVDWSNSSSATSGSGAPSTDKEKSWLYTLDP
Nature of the experiment: ELISA.

For experiment [16], the target named is T16, CD3ε (Met1-Asp126) protein with hFc tag (Sino Biological) (UniProt P07766 22-126).
T16 chain: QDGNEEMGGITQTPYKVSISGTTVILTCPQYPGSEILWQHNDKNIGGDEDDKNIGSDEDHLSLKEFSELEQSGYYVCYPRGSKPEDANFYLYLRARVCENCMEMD
Nature of the experiment: ELISA.

Experiment [17] addresses T17, CD3E-human Fc protein (Sino Biological) (UniProt P07766 23-126).
T17 chain: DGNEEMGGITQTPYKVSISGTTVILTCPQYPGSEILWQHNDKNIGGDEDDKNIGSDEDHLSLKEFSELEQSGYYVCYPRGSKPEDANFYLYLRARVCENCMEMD
Nature of the experiment: BLI (Octet).

Experiment [18] has as its target T18, HA-tagged CD3ε (expressed from pcDNA3.1 in transfected HCT116 cells) (human, UniProt P07766 23-207).
T18 construct: whole, on cells; also called CD3ε-HA; CD3E-HA; not shown: HA tag
Kind of experiment: flow cytometry on HCT116-CD3ε cells, 1-4 µg/ml protein, anti-6x-His-FITC. (In general: In flow cytometry, cells or beads pass a laser one at a time.)

B1: monoclonal antibody 13B7A6H3 (antibody, mouse IgG1, kappa, V domains shown)
VH: QVQLQQSGPELVKPGASVRMSCKTSGYTFTDYVISWVKQRPGQGLEWIGEIFPRTGSTYYNENFKATATLTADKSSNTAYMQLSSLTSEDSAAYFCAFITSVDWAMEYWGQGTSVTVSS
VL: DVVMTQTPLSLPVSLGDQASISCRSSESLVNSKGNTHLHWYLQKPGQSPKLLIYKVSNRFSGVPDRFSGSGSGTDFTLKISRVEAEDLGVYFCSQSTHAPYTFGGGTKLEIKR
notes: Mouse hybridoma monoclonal; also called 13B7A6H3 monoclonal antibody
Consider B1, for which the binding result is given as “no binding (tested: 1 µg/ml)” in experiment [1]; “no binding (tested: 1 µg/ml)” in experiment [2]; “no binding (tested: 1 µg/ml)” in experiment [3]; “binds” in experiment [4]; “binds” in experiment [5]; “binds” in experiment [6]. In addition, the binding result in experiment [7], in [8], in [9], in [10], in experiment [11] and in experiment [12] was “binds” in each case. Besides, the binding result in [13] and in [14] was “binds” in each case.

B2: ITPRIPL1-RBD recombinant protein (human ITPRIPL1 extracellular domain, 25-103 amino acids, C-terminal 6x-His and Myc tags, Cusabio, from yeast) (ligand)
chain: HPLMVSDRMDLDTLARSRQLEKRMSEEMRLLEMEFEERKRAAEQRQKAENFWTGDTSSDQLVLGKKDMGWPFQADGQEG
notes: also called IT1-RBD protein; ITPRIPL1-RBD-6x-His recombinant protein; not shown: 6x-His and Myc tags at the C terminus
What is called EC50 is the concentration needed to bring the measured effect to its halfway point. Low values mean a more potent agent, high ones a less potent agent. The Kd is the free concentration of one partner at which half of the binding sites on the other are occupied at equilibrium, for simple one-to-one binding. A lower Kd goes with a tighter complex. In the case of B2, the EC50 in experiment [15] amounted to 0.418 µg/mL; in experiment [16], 0.255 µg/mL. Also, the equilibrium dissociation constant (Kd) in [17] came to 318 nM. The binding result in experiment [18] was “binds”.

(Values after patent US20240034776A1 (FUDAN UNIVERSITY, published 2024).)
